# Results reported in patent US20240270846A1 (published 2024).
# Positions count from the first letter of the chain named. Numbers in names are those of the source.
# B1: GLS3000 N53E one-arm antibody (antibody, human IgG1, kappa, L234A L235A, N297A, name in Kabat numbering)
# light: DIVMTQSPLSLPVTPGEPASISCRSSQSLVHSNRNTYLHWYQQKPGQAPRLLIYKVSERFSGVPDRFSGSGSGTDFTLKISRVEAEDVGVYYCGQGTQVPYTFGQGTKLEIKRTVAAPSVFIFPPSDEQLKSGTASVVCLLNNFYPREAKVQWKVDNALQSGNSQESVTEQDSKDSTYSLSSTLTLSKADYEKHKVYACEVTHQGLSSPVTKSFNRGEC
# heavy: QVQLVESGGGVVQPGRSLRLSCAASGFTFSNAWMHWVRQAPGKGLEWVAQIKAKSNNYATYYAESVKGRFTISRDDSKNSLYLQMNSLKTEDTAVYYCRYVHYGAYYGVDAWGQGTTVTVSSASTKGPSVFPLAPSSKSTSGGTAALGCLVKDYFPEPVTVSWNSGALTSGVHTFPAVLQSSGLYSLSSVVTVPSSSLGTQTYICNVNHKPSNTKVDKKVEPKSCDKTHTCPPCPAPEAAGGPSVFLFPPKPKDTLMISRTPEVTCVVVDVSHEDPEVKFNWYVDGVEVHNAKTKPREEQYASTYRVVSVLTVLHQDWLNGKEYKCKVSNKALPAPIEKTISKAKGQPREPQVYTLPPSRCELTKNQVSLSCAVKGFYPSDIAVEWESNGQPENNYKTTPPVLDSDGSFFLVSKLTVDKSRWQQGNVFSCSVMHEALHNHYTQKSLSLSPDYKDDDDK
# chain: EPKSSDKTHTCPPCPAPELLGGPSVFLFPPKPKDTLMISRTPEVTCVVVDVSHEDPEVKFNWYVDGVEVHNAKTKPREEQYNSTYRVVSVLTVLHQDWLNGKEYKCKVSNKALPAPIEKTISKAKGQPREPQVCTLPPSRDELTKNQVSLWCLVKGFYPSDIAVEWESNGQPENNYKTTPPVLDSDGSFFLYSKLTVDKSRWQQGNVFSCSVMHEALHNRYTQKSLSLSP
# B2: GLS3000 N53P one-arm antibody (antibody, human IgG1, kappa, L234A L235A, N297A, name in Kabat numbering)
# light: B1 light with E58P
# heavy: B1 heavy
# chain: B1 chain
# B3: GLS3000 N53G one-arm antibody (antibody, human IgG1, kappa, L234A L235A, N297A, name in Kabat numbering)
# light: B1 light with E58G
# heavy: B1 heavy
# chain: B1 chain
# B4: GLS3000 N53I one-arm antibody (antibody, human IgG1, kappa, L234A L235A, N297A, name in Kabat numbering)
# light: B1 light with E58I
# heavy: B1 heavy
# chain: B1 chain
# B5: GLS3000 N53Q one-arm antibody (antibody, human IgG1, kappa, L234A L235A, N297A, name in Kabat numbering)
# light: B1 light with E58Q
# heavy: B1 heavy
# chain: B1 chain
# B6: GLS3000 N53F one-arm antibody (antibody, human IgG1, kappa, L234A L235A, N297A, name in Kabat numbering)
# light: B1 light with E58F
# heavy: B1 heavy
# chain: B1 chain
# B7: GLS3000 N53L one-arm antibody (antibody, human IgG1, kappa, L234A L235A, N297A, name in Kabat numbering)
# light: B1 light with E58L
# heavy: B1 heavy
# chain: B1 chain
# B8: GLS3000 N53K one-arm antibody (antibody, human IgG1, kappa, L234A L235A, N297A, name in Kabat numbering)
# light: B1 light with E58K
# heavy: B1 heavy
# chain: B1 chain
# B9: GLS3000 N53H one-arm antibody (antibody, human IgG1, kappa, L234A L235A, N297A, name in Kabat numbering)
# light: B1 light with E58H
# heavy: B1 heavy
# chain: B1 chain
# B10: GLS3000 N53M one-arm antibody (antibody, human IgG1, kappa, L234A L235A, N297A, name in Kabat numbering)
# light: B1 light with E58M
# heavy: B1 heavy
# chain: B1 chain
# Biological target: T1, CD3 epsilon homodimer protein (UniProt P07766 23-126)
# T1 construct: Construct of the homodimer is not described; also called CD3 (CD3 epsilon)
# Assay: SPR Biacore T200, CD3e homodimer on chip, antibody analyte;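 note: CD3 epsilon homodimer amine-coupled on CM4 sensor chip, antibodies injected as analyte at 25 °C in HBS-EP+, ratio ≥0.8 taken as binding retained versus unaltered parent antibody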
# T1 sequence (P07766 23-126): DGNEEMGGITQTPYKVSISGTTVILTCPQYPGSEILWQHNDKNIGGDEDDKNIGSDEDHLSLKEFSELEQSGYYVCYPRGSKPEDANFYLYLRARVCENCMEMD
row,ratio of amounts bound (altered form/GLS3000),Binder
1,0.54,B1
2,0.81,B2
3,0.76,B3
4,0.5,B4
5,0.77,B5
6,0.69,B6
7,0.56,B7
8,1.08,B8
9,1.18,B9
10,0.62,B10
